Test results as given in patent US20140086935A1 (Bayer, published 2014).
Like-named read-outs stand apart in the source and are kept apart here.

Key:
rat TIMP-1 [1] = target: T1, rat TIMP-1 (rat, UniProt P30120 24-217); experiment: cell-based or functional assay
rat TIMP-1 [2] = target: T1, rat TIMP-1; experiment: SPR (BIAcore), TIMP-1 coupled to chip, monovalent Fab
Procedure: (§1) For affinity determination, monomeric fractions of affinity and SEC purified Fab fragments or purified IgG1 molecules were used. All experiments were conducted in HBS buffer at a flow rate of 20 μl/min at 25° C. on a BIAcore™ instrument. Antigens in 100 mM sodium acetate pH 5.0 were coupled to a CM 5 sensor chip using standard EDC-NHS coupling chemistry. […] All sensograms were fitted globally using BIA evaluation software. For monovalent Fab fragments a monovalent fit (Langmuir binding) and for IgGs a bivalent fit was applied.

rat TIMP-1 [3] = target: T1, rat TIMP-1; experiment: cell-based or functional assay; remark: listed apart in the source
rat TIMP-1 [4] = target: T1, rat TIMP-1; experiment: SPR (BIAcore), TIMP-1 coupled to chip, monovalent Fab; remark: listed apart in the source
Procedure: as §1

human TIMP-1 [5] = target: T2, human TIMP-1 (human, UniProt P01033 24-207); experiment: cell-based or functional assay
human TIMP-1 [6] = target: T2, human TIMP-1; experiment: SPR (BIAcore), TIMP-1 coupled to chip, monovalent Fab
Procedure: as §1

T1 sequence (P30120 24-217 limits assumed): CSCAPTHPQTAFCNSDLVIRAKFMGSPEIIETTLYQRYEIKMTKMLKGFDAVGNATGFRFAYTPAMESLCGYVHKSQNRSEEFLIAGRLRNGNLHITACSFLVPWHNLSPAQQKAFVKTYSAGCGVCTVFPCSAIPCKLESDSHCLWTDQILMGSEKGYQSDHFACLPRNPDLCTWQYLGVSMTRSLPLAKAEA

B1: MS-BW-56 (Fab, V domains shown)
VH: QVQLVQSGAEVKKPGSSVKVSCKASGGTFSSYAISWVRQAPGQGLEWMGGIIPIFGTANYAQKFQGRVTITADESTSTAYMELSSLRSEDTAVYYCARQEWYMDYWGQGTLVTVSS
VL: DIELTQPPSVSVAPGQTARISCSGDALGDKYASWYQQKPGQAPVLVIYDDSDRPSGIPERFSGSNSGNTATLTISGTQAEDEADYYCQSYDRSMWVFGGGTKLTVLG
notes: Fab, FLAG + Strep-tag II; not tied by name
- IC50 in rat protease assay (rat TIMP-1 [1]): > 0.1 µM
- Kd (rat TIMP-1 [2]): ~0.17 µM

B2: MS-BW-17 (Fab, V domains shown)
VH: QVQLVQSGAEVKKPGESLKISCKGSGYSFTSYWIGWVRQMPGKGLEWMGIIYPGDSDTRYSPSFQGQVTISADKSISTAYLQWSSLKASDTAMYYCARLTNYFDSIYYDHWGQGTLVTVSS
VL: DIALTQPASVSGSPGQSITISCTGTSSDVGGYNYVSWYQQHPGKAPKLMIYDVSNRPSGVSNRFSGSKSGNTASLTISGLQAEDEADYYCQSYDPSHPSKVFGGGTKLTVLG
notes: as for B1
- IC50 in rat protease assay (rat TIMP-1 [1]): 0.011 µM
- IC50 in rat protease assay (rat TIMP-1 [3]): 0.011 µM
- Kd (rat TIMP-1 [4]): 0.013 µM
- Kd (rat TIMP-1 [2]): 0.013 µM

B3: MS-BW-55 (Fab, V domains shown)
VH: QVQLVQSGAEVKKPGSSVKVSCKASGGTFSSYAISWVRQAPGQGLEWMGWINPNSGGTNYAQKFQGRVTMTRDTSISTAYMELSSLRSEDTAVYYCARITYIGYDFWGQGTLVTVSS
VL: DIALTQPASVSGSPGQSITISCTGTSSDVGGYNYVSWYQQHPGKAPKLMIYDVSNRPSGVSNRFSGSKSGNTASLTISGLQAEDEADYYCQSRDLYYVYYVFGGGTKLTVLG
notes: as for B1
- IC50 in rat protease assay (rat TIMP-1 [1]): ~0.1 µM
- Kd (rat TIMP-1 [2]): ~0.023 µM

B4: MS-BW-17-3 (Fab, V domains shown)
VH: QVQLVQSGAEVKKPGESLKISCKGSGYSFTSYWIGWVRQMPGKGLEWMGIIYPGDSDTRYSPSFQGQVTISADKSISTAYLQWSSLKASDTAMYYCARLTNYFDSIYYDHWGQGTLVTVSS
VL: DIALTQPASVSGSPGQSITISCTGTSSDVGGYNYVSWYQQHPGKAPKLMIYDVSNRPSGVSNRFSGSKSGNTASLTISGLQAEDEADYYCQSFTVSPGADVFGGGTKLTVLG
notes: Fab from LCDR3 optimization of MS-BW-17
- IC50 in rat protease assay (rat TIMP-1 [3]): 0.003 µM
- Kd (rat TIMP-1 [4]): 0.0019 µM

B5: MS-BW-17-2 (Fab, V domains shown)
VH: QVQLVQSGAEVKKPGESLKISCKGSGYSFTSYWIGWVRQMPGKGLEWMGIIYPGDSDTRYSPSFQGQVTISADKSISTAYLQWSSLKASDTAMYYCARLTNYFDSIYYDHWGQGTLVTVSS
VL: DIALTQPASVSGSPGQSITISCTGTSSDVGGYNYVSWYQQHPGKAPKLMIYDVSNRPSGVSNRFSGSKSGNTASLTISGLQAEDEADYYCQAFAVMPNVEVFGGGTKLTVLG
notes: as for B4
- IC50 in rat protease assay (rat TIMP-1 [3]): 0.0011 µM
- Kd (rat TIMP-1 [4]): 0.0013 µM

B6: MS-BW-40 (Fab, V domains shown)
VH: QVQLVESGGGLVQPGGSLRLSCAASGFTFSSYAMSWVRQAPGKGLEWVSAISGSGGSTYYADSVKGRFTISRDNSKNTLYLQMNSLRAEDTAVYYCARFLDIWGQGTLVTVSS
VL: DIALTQPASVSGSPGQSITISCTGTSSDVGGYNYVSWYQQHPGKAPKLMIYDVSNRPSGVSNRFSGSKSGNTASLTISGLQAEDEADYYCQSYDYQQFTVFGGGTKLTVLG
notes: Fab: heavy chain of MS-BW-3 with light chain of MS-BW-1; not tied by name
- IC50 in human protease assay (human TIMP-1 [5]): > 0.1 µM
- Kd (human TIMP-1 [6]): ~0.049 µM

B7: MS-BW-54 (Fab, V domains shown)
VH: QVQLVQSGAEVKKPGESLKISCKGSGYSFTSYWIGWVRQMPGKGLEWMGIIYPGDSDTRYSPSFQGQVTISADKSISTAYLQWSSLKASDTAMYYCARYYGFEYDLLFDNWGQGTLVTVSS
VL: DIALTQPASVSGSPGQSITISCTGTSSDVGGYNYVSWYQQHPGKAPKLMIYDVSNRPSGVSNRFSGSKSGNTASLTISGLQAEDEADYYCQSYDISGYPVFGGGTKLTVLG
notes: as for B1
- IC50 in rat protease assay (rat TIMP-1 [1]): 0.007 µM
- IC50 in rat protease assay (rat TIMP-1 [3]): 0.007 µM
- Kd (rat TIMP-1 [4]): 0.009 µM
- Kd (rat TIMP-1 [2]): 0.009 µM

B8: MS-BW-61 (Fab, V domains shown)
VH: QVQLVQSGAEVKKPGESLKISCKGSGYSFTSYWIGWVRQMPGKGLEWMGIIYPGDSDTRYSPSFQGQVTISADKSISTAYLQWSSLKASDTAMYYCARIIGDYVIFFDVWGQGTLVTVSS
VL: DIALTQPASVSGSPGQSITISCTGTSSDVGGYNYVSWYQQHPGKAPKLMIYDVSNRPSGVSNRFSGSKSGNTASLTISGLQAEDEADYYCQSFDMIHPYVFGGGTKLTVLG
notes: as for B1
- IC50 in rat protease assay (rat TIMP-1 [1]): > 0.1 µM
- Kd (rat TIMP-1 [2]): ~0.051 µM

B9: MS-BW-59 (Fab, V domains shown)
VH: QVQLVQSGAEVKKPGESLKISCKGSGYSFTSYWIGWVRQMPGKGLEWMGIIYPGDSDTRYSPSFQGQVTISADKSISTAYLQWSSLKASDTAMYYCARLRVHDYAMYFDLWGQGTLVTVSS
VL: DIALTQPASVSGSPGQSITISCTGTSSDVGGYNYVSWYQQHPGKAPKLMIYDVSNRPSGVSNRFSGSKSGNTASLTISGLQAEDEADYYCQSYDIMPERVFGGGTKLTVLG
notes: as for B1
- IC50 in rat protease assay (rat TIMP-1 [1]): 0.03 µM
- Kd (rat TIMP-1 [2]): ~0.015 µM

B10: MS-BW-60 (Fab, V domains shown)
VH: QVQLVQSGAEVKKPGESLKISCKGSGYSFTSYWIGWVRQMPGKGLEWMGIIYPGDSDTRYSPSFQGQVTISADKSISTAYLQWSSLKASDTAMYYCARFVSYNGSVPYFDYWGQGTLVTVSS
VL: DIALTQPASVSGSPGQSITISCTGTSSDVGGYNYVSWYQQHPGKAPKLMIYDVSNRPSGVSNRFSGSKSGNTASLTISGLQAEDEADYYCQSMDFRLMHVFGGGTKLTVLG
notes: as for B1
- IC50 in rat protease assay (rat TIMP-1 [1]): > 0.1 µM
- Kd (rat TIMP-1 [2]): ~0.03 µM

B11: MS-BW-57 (Fab, V domains shown)
VH: QVQLVQSGAEVKKPGESLKISCKGSGYSFTSYWIGWVRQMPGKGLEWMGIIYPGDSDTRYSPSFQGQVTISADKSISTAYLQWSSLKASDTAMYYCARLYPEDLIYFDYWGQGTLVTVSS
VL: DIALTQPASVSGSPGQSITISCTGTSSDVGGYNYVSWYQQHPGKAPKLMIYDVSNRPSGVSNRFSGSKSGNTASLTISGLQAEDEADYYCQSWDVQTDKVFGGGTKLTVLG
notes: as for B1
- IC50 in rat protease assay (rat TIMP-1 [1]): ~0.06 µM
- Kd (rat TIMP-1 [2]): ~0.039 µM

B12: MS-BW-51 (Fab, V domains shown)
VH: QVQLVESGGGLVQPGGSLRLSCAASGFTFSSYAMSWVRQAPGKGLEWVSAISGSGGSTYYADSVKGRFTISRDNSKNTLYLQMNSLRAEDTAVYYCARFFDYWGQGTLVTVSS
VL: DIALTQPASVSGSPGQSITISCTGTSSDVGGYNYVSWYQQHPGKAPKLMIYDVSNRPSGVSNRFSGSKSGNTASLTISGLQAEDEADYYCQSYDFINVIVFGGGTKLTVLG
notes: Fab: heavy chain of MS-BW-28 with light chain of MS-BW-25; not tied by name
- IC50 in human protease assay (human TIMP-1 [5]): 0.007 µM
- Kd (human TIMP-1 [6]): ~0.007 µM

B13: MS-BW-54-1 (Fab, V domains shown)
VH: QVQLVQSGAEVKKPGESLKISCKGSGYSFTSYWIGWVRQMPGKGLEWMGIIYPGDSDTRYSPSFQGQVTISADKSISTAYLQWSSLKASDTAMYYCARYYGFEYDLLFDNWGQGTLVTVSS
VL: DIALTQPASVSGSPGQSITISCTGTSSDLGGYNYVSWYQQHPGKAPKLMIYAGNNRPSGVSNRFSGSKSGNTASLTISGLQAEDEADYYCQAYDSSGYPVFGGGTKLTVLG
notes: Fab from LCDR1, -2, -3 optimization of MS-BW-54
- IC50 in rat protease assay (rat TIMP-1 [3]): 0.003 µM
- Kd (rat TIMP-1 [4]): 0.002 µM

B14: MS-BW-47 (Fab, V domains shown)
VH: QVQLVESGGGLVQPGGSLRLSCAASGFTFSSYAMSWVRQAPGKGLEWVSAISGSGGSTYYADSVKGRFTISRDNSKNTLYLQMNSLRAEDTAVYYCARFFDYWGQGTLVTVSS
VL: DIALTQPASVSGSPGQSITISCTGTSSDVGGYNYVSWYQQHPGKAPKLMIYDVSNRPSGVSNRFSGSKSGNTASLTISGLQAEDEADYYCQSYDYQQFTVFGGGTKLTVLG
notes: Fab: heavy chain of MS-BW-28 with light chain of MS-BW-1; not tied by name
- IC50 in human protease assay (human TIMP-1 [5]): > 0.1 µM
- Kd (human TIMP-1 [6]): ~0.152 µM

B15: MS-BW-52 (Fab, V domains shown)
VH: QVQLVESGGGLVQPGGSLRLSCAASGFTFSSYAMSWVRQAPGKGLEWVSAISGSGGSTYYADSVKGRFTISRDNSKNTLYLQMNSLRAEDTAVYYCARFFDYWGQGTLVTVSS
VL: DIALTQPASVSGSPGQSITISCTGTSSDVGGYNYVSWYQQHPGKAPKLMIYDVSNRPSGVSNRFSGSKSGNTASLTISGLQAEDEADYYCQSYDFVRFMVFGGGTKLTVLG
notes: Fab: heavy chain of MS-BW-28 with light chain of MS-BW-26; not tied by name
- IC50 in human protease assay (human TIMP-1 [5]): 0.009 µM
- Kd (human TIMP-1 [6]): ~0.011 µM

B16: MS-BW-43 (Fab, V domains shown)
VH: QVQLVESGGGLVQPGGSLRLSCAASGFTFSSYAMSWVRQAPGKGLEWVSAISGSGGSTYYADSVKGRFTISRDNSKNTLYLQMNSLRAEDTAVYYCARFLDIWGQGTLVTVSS
VL: DIALTQPASVSGSPGQSITISCTGTSSDVGGYNYVSWYQQHPGKAPKLMIYDVSNRPSGVSNRFSGSKSGNTASLTISGLQAEDEADYYCQSYDFINVIVFGGGTKLTVLG
notes: Fab: heavy chain of MS-BW-3 with light chain of MS-BW-25; not tied by name
- IC50 in human protease assay (human TIMP-1 [5]): > 0.1 µM
- Kd (human TIMP-1 [6]): ~0.065 µM

B17: MS-BW-49 (Fab, V domains shown)
VH: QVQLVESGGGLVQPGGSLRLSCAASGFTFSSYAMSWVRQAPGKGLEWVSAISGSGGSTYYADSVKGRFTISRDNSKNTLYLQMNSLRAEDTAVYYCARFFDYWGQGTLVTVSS
VL: DIALTQPASVSGSPGQSITISCTGTSSDVGGYNYVSWYQQHPGKAPKLMIYDVSNRPSGVSNRFSGSKSGNTASLTISGLQAEDEADYYCQSYDFKTYLVFGGGTKLTVLG
notes: Fab: heavy chain of MS-BW-28 with light chain of MS-BW-2; not tied by name
- IC50 in human protease assay (human TIMP-1 [5]): > 0.1 µM
- Kd (human TIMP-1 [6]): ~0.021 µM

B18: MS-BW-46 (Fab, V domains shown)
VH: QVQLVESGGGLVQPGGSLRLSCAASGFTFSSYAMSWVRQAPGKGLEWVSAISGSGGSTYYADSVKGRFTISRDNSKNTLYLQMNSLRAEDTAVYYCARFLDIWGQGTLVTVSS
VL: DIALTQPASVSGSPGQSITISCTGTSSDVGGYNYVSWYQQHPGKAPKLMIYDVSNRPSGVSNRFSGSKSGNTASLTISGLQAEDEADYYCQSYDFRRFSVFGGGTKLTVLG
notes: Fab: heavy chain of MS-BW-3 with light chain of MS-BW-28; not tied by name
- IC50 in human protease assay (human TIMP-1 [5]): 0.004 µM
- Kd (human TIMP-1 [6]): 0.006 µM

B19: MS-BW-45 (Fab, V domains shown)
VH: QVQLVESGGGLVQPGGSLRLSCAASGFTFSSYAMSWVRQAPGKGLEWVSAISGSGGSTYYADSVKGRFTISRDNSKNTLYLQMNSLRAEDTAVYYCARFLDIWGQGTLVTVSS
VL: DIALTQPASVSGSPGQSITISCTGTSSDVGGYNYVSWYQQHPGKAPKLMIYDVSNRPSGVSNRFSGSKSGNTASLTISGLQAEDEADYYCQSYDFYKFNVFGGGTKLTVLG
notes: Fab: heavy chain of MS-BW-3 with light chain of MS-BW-27; not tied by name
- IC50 in human protease assay (human TIMP-1 [5]): 0.009 µM
- Kd (human TIMP-1 [6]): 0.008 µM

B20: MS-BW-41 (Fab, V domains shown)
VH: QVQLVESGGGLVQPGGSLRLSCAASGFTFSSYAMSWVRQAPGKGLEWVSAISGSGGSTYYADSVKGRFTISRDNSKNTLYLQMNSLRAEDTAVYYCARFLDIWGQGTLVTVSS
VL: DIALTQPASVSGSPGQSITISCTGTSSDVGGYNYVSWYQQHPGKAPKLMIYDVSNRPSGVSNRFSGSKSGNTASLTISGLQAEDEADYYCQSYDFKTYLVFGGGTKLTVLG
notes: Fab: heavy chain of MS-BW-3 with light chain of MS-BW-2; not tied by name
- IC50 in human protease assay (human TIMP-1 [5]): 0.029 µM
- Kd (human TIMP-1 [6]): ~0.006 µM
